Results reported in the supplement of paper PMC10567573.

B1: ATE1 (parent)
chain: DYFPSEDFYRCGYCKNESGSRSNG

Variants of: B1
Assay: protein stability index of a GFP-peptide fusion (GPS, HEK-293T) (PSI 1-6); higher = more stable
Settings: c terminus: a fixed tail appended
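Also: lentivirally expressed fusions sorted by FACS into six bins by GFP to DsRed ratio, PSI derived from sequencing read proportions per bin multiplied by bin number.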

Protein stability index: each site, then its substitutions
G19: C 1.93 | D 2.45 | K 1.95 | A 1.61 | F 1.56 | H 2.03 | E 2.52 | I 2.65
N16: D 2.79 | T 1.97 | F 1.62 | Q 1.77 | W 1.41 | M 2.62 | P 2.23 | V 1.74 | L 1.53 | R 2.1 | C 1.47 | I 1.74 | A 3.01 | Y 2.43 | H 2
S18: C 1.08 | P 2.2 | R 1.68 | I 1.53 | K 2.33 | M 1.24 | H 1.95 | N 1.35 | Q 2.37 | V 2.17 | Y 1.69 | L 1.84 | F 3.12 | W 2.05 | T 2.07 | A 2.67 | E 2.53
E17: V 1.4 | T 2.77 | W 1.78 | H 2.14 | C 1.63 | I 1.38 | A 1.74 | K 2.33 | Y 1.49 | Q 1.9 | D 2.44 | L 2.17 | S 1.83 | P 1.37 | G 1.96 | N 2 | R 2.78 | M 2.45 | F 1.71
R10: P 2.47 | D 2.31 | C 1.43 | I 1.88 | Y 2.99 | K 2.44 | W 2.33 | M 2.21 | E 2.6 | F 1.98 | H 1.82 | V 3.04 | S 2.2 | L 1.69 | T 2.2 | G 2.35
G12: V 2.4 | I 2.84 | W 3.35 | L 2.63 | C 2.01 | D 3.03 | S 3.15 | T 2.99 | R 4.05 | K 2.68 | F 3.18 | N 2.69 | M 2.77 | E 3.04 | P 1.93 | Y 2.49 | A 3.25 | Q 2.64
K15: I 2.18 | P 3.41 | T 1.85 | C 2.17 | E 2.46 | Q 2.65 | A 1.59 | Y 2.89 | W 2.25 | V 2.18 | S 2.42 | G 1.95 | R 1.17 | F 2.65 | M 3.08 | D 2.74 | L 1.82 | H 1.64 | N 2.28
Y13: E 4.41 | F 2.4 | A 2.76 | I 2.91 | N 3.83 | L 2.03 | T 3.93 | P 3.75 | R 2.23 | C 2.18 | Q 3.52 | G 3.4 | S 3.69 | M 3.8 | H 3.21 | W 3.73 | K 3.5
C14: E 4.6 | R 3.8 | W 3.43 | Q 3.69 | G 3.81 | I 3.97 | T 4.36 | P 3.53 | S 3.94 | L 3.28 | V 4.1 | K 3.65 | H 4.16 | D 4.47 | M 4.25 | N 3.4 | Y 3.04 | F 3.44 | A 4.24
C11: G 4.36 | M 4.12 | W 4.12 | I 3.83 | Q 4.36 | P 4.15 | D 4.21 | F 3.46 | E 4.92 | L 2.96 | K 4.17 | S 3.54 | V 3.73 | H 4.4 | N 3.84 | Y 3.42 | A 3.73 | R 3.9 | T 4.55
